We go through 36 sequences from the supplement of paper PMC12764529.

Data set [1] can be described thus: folding stability dG unfold from trypsin proteolysis; higher = more stable. Summed up: (§1)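 Only designs with AlphaFold2 dimer inter-PAE above 15 were retained; each was a mini-protein under 80 residues with no cysteine, in a PA-tagged cDNA display construct. After digestion with trypsin and chymotrypsin and sequencing, K50 was inferred by Bayesian fitting of counts, and unfolding free energy was derived per protease or combined against a sequence-predicted unfolded-state K50 and a shared folded-state K50.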

Data set [2] is described as follows: folding stability dG unfold from chymotrypsin proteolysis; higher = more stable. Summed up: as §1
Data set [3] is described as follows: folding stability dG unfold (combined trypsin and chymotrypsin); higher = more stable. Put shortly:
as §1

± gives the half width of the 95% confidence interval.

In the case of “SAAMLFEKKTGIKVDVSLVPPEQISQLPPSYTVTPEGDVVVVTTVTTLPLSSYPVKLPPVYDPNTLKLLSAG [r14_126_JUSTAS]”, the “folding stability dG unfold” value was 0.146 ± 0.12 kcal/mol in data set [1], -0.376 ± 0.19 kcal/mol in data set [2] and -0.0133 ± 0.11 kcal/mol in data set [3].
On the same counts, the results for “SAAPADNPVLVATLTVTVTRPVSFTSPDGSTGTVPETETRTLVLVADAGNDPEALERALELARRLAETVSAG [r14_830_TrMRF]” are 2.73 ± 0.076 kcal/mol, 4.04 ± 0.076 kcal/mol and 3.51 ± 0.099 kcal/mol.
“SAAPGAEVIEEKEIEVGGYTVTIVYNKDTDTVTIFVRNPDGTITEFTIDADTLEITEVREIKLPPGVELSAG [r14_676_TrROS_Hall]”: the figures for the “folding stability dG unfold” value in data set [1], in data set [2] and in data set [3] were 2.24 ± 0.084 kcal/mol, 3.35 ± 0.06 kcal/mol and 3 ± 0.12 kcal/mol, respectively.
Take “SAATLPPGTKVLTLTVTVRVPPGVSVEDLAAALAAELRRRLGPGAKITVTVTYDPETDTLTVTVTVVLPPSA [r9_657_TrROS_Hall]”: the entries for the “folding stability dG unfold” value in data set [1], in data set [2] and in data set [3] were 3.53 ± 0.091 kcal/mol, 4.66 ± 0.078 kcal/mol and 4.38 ± 0.081 kcal/mol, respectively.
For “SAAVITLETENVTATSTLLEDGSVLVDVVEFYEDGYVSVVKAVIGPDGEIKVVERVVFPVPPPVPPPDASAG [r14_42_TrMRF]” the same measures were 2.49 ± 0.094 kcal/mol, 2.3 ± 0.094 kcal/mol and 2.36 ± 0.18 kcal/mol.
For “SAAVPSDLTLTTLETKKEKFDDNEYTVVKSVLLRPGAPGATVTEYTTVYKGDKVVETKPSERTVSPALLSAG [r14_651_JUSTAS]” the same measures were -0.897 ± 0.27 kcal/mol, 0.209 ± 0.13 kcal/mol and -0.0404 ± 0.15 kcal/mol.
As for “SADIKIDDIETQENPDGYEWYMITINFPDPKKFKEKLKKHGVNPEWDPNDPDQVEIWFPREDIQEILKLSAG [r14_777_TrROS]”, the “folding stability dG unfold” value in data set [1] turned out to be 0.328 ± 0.21 kcal/mol; in data set [2], 0.884 ± 0.28 kcal/mol; in data set [3] it was 0.665 ± 0.36 kcal/mol.
For “SADMVMFPMTGEFHFPGWRIKVEITLMFHFTPNGKFGPNFHPMIKIEIVPPPPPPKITEEEADKANENGSAG [r14_442_TrROS]” the same measures were 3.03 ± 0.22 kcal/mol, 4.13 ± 0.19 kcal/mol and 3.59 ± 0.26 kcal/mol.
As for “SADPNYHYKYKIKIEIAWFPPDDLEKLPPGMIMIPFDDHWIMIVIKLEPVEREPPPPPPEYDPETGDWKSAG [r14_126_TrROS]”, the “folding stability dG unfold” value in data set [1] was found to be 2.5 ± 0.43 kcal/mol; in data set [2], 3.38 ± 0.17 kcal/mol; in data set [3] it was 3.23 ± 0.46 kcal/mol.
With “SADSVPIKLTFTFEVPEEIYEAAVKAIEDIFKDLGLEVEFEAKAEPGEEGVKVTVELNLTIPPNNPNLISAG [r14_76_TrMRF]”, the “folding stability dG unfold” value in data set [1] came to 2.44 ± 0.2 kcal/mol; in data set [2] it was 3.31 ± 0.096 kcal/mol; in data set [3] it was 3.07 ± 0.16 kcal/mol.
“SADVVVIHARSPEELRAALEEARKEGKTVRIVVSREELDELKALLPEDVKIEVLKNENGEELVVIEVKVSAG [r14_127_TrROS_Hall]”: the “folding stability dG unfold” value amounted to 4.32 ± 0.23 kcal/mol in data set [1], 3.11 ± 0.28 kcal/mol in data set [2] and 4.15 ± 0.43 kcal/mol in data set [3].
On the same counts, the results for “SAEEAAKNFKPIRIRLRDPRGRLYEVERIELTPDGRLLITLRLPNETRTYLIEPDHPFPLPPDLIIEVEGSA [r9_993_TrMRF]” are 2.74 ± 0.049 kcal/mol, 3.59 ± 0.043 kcal/mol and 3.34 ± 0.08 kcal/mol.
On the same counts, the results for “SAEEEEVVEVELEIEIEMTPEELEELIEALRKAAEELGFEIEDIEIRVERKEDGTLRVTIRVKIRLPKPSAG [r14_109_TrROS_Hall]” are 3.68 ± 0.13 kcal/mol, 4.69 ± 0.48 kcal/mol and 4.2 ± 0.23 kcal/mol.
For the sequence “SAEKTLTIPITLENGATLTITVYEDRIEATLEVDGLTGTGYTLPDGTVVLNLRAPGNKPIASPVFTLDLSAG [r14_213_TrMRF]”, the figures for the “folding stability dG unfold” value in data set [1], in data set [2] and in data set [3] were 1.73 ± 0.058 kcal/mol, 2.48 ± 0.06 kcal/mol and 2.31 ± 0.12 kcal/mol, respectively.
On the same counts, the results for “SAELEELLKKAEELAKKNNVEVEVEVKLELEPVKVTEYKLNKDGKPVEKKEEEELELRLEIKVKIRPKKSAG [r14_728_TrROS_Hall]” are 1.26 ± 0.2 kcal/mol, 3.22 ± 0.2 kcal/mol and 2.58 ± 0.35 kcal/mol.
For “SAELKISKIDVSSLPDGSKKVTVNFSAPNFKVTITLDKSGNVSVEVSPEARKLPPEFFNLILNLAKELGSAG [r14_555_TrMRF]” the same measures were 3.64 ± 0.15 kcal/mol, 4.14 ± 0.1 kcal/mol and 3.96 ± 0.1 kcal/mol.
Take “SAELLDALKKNGWTIRIPIKHPGNGETWPMPFRIEPDGDGWKISIPPPNGKPHPFKIEDIEIMPPEDLKSAG [r14_427_TrROS]”: the “folding stability dG unfold” value in data set [1] was found to be 0.723 ± 0.11 kcal/mol; in data set [2], 0.406 ± 0.42 kcal/mol; in data set [3], 0.561 ± 0.2 kcal/mol.
Take “SAEMKIEKIEVKPLEEEPELVEITIKVKDPEKLKEALEKAGFTVEEVDEEEGKLTITMSREQLEKLLKASAG [r14_777_TrROS_Hall]”: the “folding stability dG unfold” value in data set [1] is 1.85 ± 0.1 kcal/mol; in data set [2], 1.68 ± 0.14 kcal/mol; in data set [3], 1.91 ± 0.31 kcal/mol.
On the same counts, the results for “SAEPTLAEATNDPATGTATANFPLENLPPDYRVLAVNLETGEVTEFPPDGEVTITAPEGPVLVKLFWKGSAG [r14_134_TrMRF]” are 0.608 ± 0.13 kcal/mol, -0.512 ± 0.55 kcal/mol and 0.213 ± 0.15 kcal/mol.
For “SAETKAEVFRFGDVLVVVTEERVTTPDGSERPVYTVTLLVYDPSTGKWTPFSRPFSSKEDAAKALSSGVSAG [r14_500_TrMRF]” the same measures were 1.52 ± 0.07 kcal/mol, 2.22 ± 0.083 kcal/mol and 1.98 ± 0.15 kcal/mol.
For “SAETRTLTIRIPAKDLTPEQIRALLRALLPEDATITEVRIERDEDGYITVTIVVTNPDGSKQEIRLVFPSAG [r14_30_TrROS_Hall]” the same measures were 2.527 ± 0.024 kcal/mol, 2.64 ± 0.031 kcal/mol and 2.6 ± 0.085 kcal/mol.
“SAETVTITLPGATITVEKVDGKWIATVTKVEPGADKVTVEVTLTKVDEDGNTTTVTETVTIDAKTGKVLSAG [r14_724_TrROS_Hall]”: the entries for the “folding stability dG unfold” value in data set [1], in data set [2] and in data set [3] were 2.7 ± 0.32 kcal/mol, 2.92 ± 0.19 kcal/mol and 2.81 ± 0.23 kcal/mol, respectively.
For “SAETVVTPRRSTLPDGTRLEEDVVTLPDGTTVTPVRVVRRDPETGREVVEFWVRTTDPATGTTTTTPLPSAG [r14_324_JUSTAS]” the same measures were -0.198 ± 0.12 kcal/mol, 1.72 ± 0.059 kcal/mol and 1.23 ± 0.051 kcal/mol.
For “SAEVEIEVVEKDGKLYLVIRVRFPPGLKPGDKVTLTLTLPNGAKVTITRDKDGTRYITIVVELKDLEKLSAG [r14_754_TrROS_Hall]” the same measures were 3.94 ± 0.41 kcal/mol, 5.23 ± 0.13 kcal/mol and 4.69 ± 0.22 kcal/mol.
For “SAEVEVLPFEFELPNGLRVEVHLVRLPDGTVVAPVLLVEYDPVTGEPRLSRAVAVFDPSTGKVTVLPLDSAG [r14_324_TrMRF]” the same measures were 3.01 ± 0.047 kcal/mol, 2.993 ± 0.017 kcal/mol and 2.97 ± 0.042 kcal/mol.
In the case of “SAEVYEFGNAVVVVTTSPDGTVRVYVFNPETGEVTEIEIHPDTPGEYKVRPLGNGEVKEATVPVSDILPVSA [r9_1071_TrMRF]”, the “folding stability dG unfold” value in data set [1] was determined as 0.851 ± 0.051 kcal/mol; in data set [2], 1.42 ± 0.2 kcal/mol; in data set [3], 1.19 ± 0.23 kcal/mol.
Consider “SAFNIEIEEVDPNEIYIKIDATPEQLEEIAEDIMKNFPGYKVKWEWDDEQGKIWFRIRPVPPPPPEDQNSAG [r14_600_TrROS]”, for which the entries for the “folding stability dG unfold” value in data set [1], in data set [2] and in data set [3] were 1.14 ± 0.1 kcal/mol, 1.97 ± 0.13 kcal/mol and 1.96 ± 0.29 kcal/mol, respectively.
With “SAFRIKIELWNPNGKPQEHTFPVPPGDPDKLVEEIEDEVQKHHPNDGYKMRAEILEVTPNGWVTIRIWYSAG [r14_622_TrROS]”, the “folding stability dG unfold” value is 2.66 ± 0.077 kcal/mol in data set [1], 3.01 ± 0.11 kcal/mol in data set [2] and 2.79 ± 0.18 kcal/mol in data set [3].
On the same counts, the results for “SAGAAPGEPVVLVLPDGTVIPVIPRPDGSATLDAVAPSADGTYTVTASLPATGTTVTLELSAPPSFVAASAG [r5_394_TrMRF]” are 1.43 ± 0.038 kcal/mol, 0.824 ± 0.052 kcal/mol and 1.16 ± 0.043 kcal/mol.
Turning to “SAGAKEITAEELAEIVREFAAALPPDVKEPVTVEITVPLEDGRVLVFKVTVERSPDGVKATVEVSPGASAGG [r19_220_TrMRF]”, the “folding stability dG unfold” value in data set [1] was 2.4 ± 0.13 kcal/mol; in data set [2], 3.43 ± 0.037 kcal/mol; in data set [3], 3.21 ± 0.18 kcal/mol.
On the same counts, the results for “SAGAKVTVEPVKVEPLPNGEVKVTAKVTIYDPNTTKPTEIEVTGTYKLHPNGKPVKPETIVAEAIKKAASAG [r5_604_TrMRF]” are 0.426 ± 0.038 kcal/mol, 0.337 ± 0.17 kcal/mol and 0.459 ± 0.14 kcal/mol.
On the same counts, the results for “SAGALEETTLPLPRPESLPDVSPEVLAALILALLSAVGVTVEVLSSDPANPVTAMVATRDGRVVLRALASAG [r5_80_JUSTAS]” are 1.58 ± 0.049 kcal/mol, 2.34 ± 0.051 kcal/mol and 2.06 ± 0.068 kcal/mol.
On the same counts, the results for “SAGAPLEVPGPLVTVTEEEVPGKPLVFIPTPDGLIVVDLVTGKAERYPLYSEEPIVLDVPPGVVIELPSAGG [r19_138_JUSTAS]” are 1.02 ± 0.073 kcal/mol, 0.398 ± 0.13 kcal/mol and 0.819 ± 0.077 kcal/mol.
For “SAGASVEQWSLTSVEVTELPGPEVVVPMTARLPDGTEVVMSGVVGPGSVTLTSPDGSTSTLAIPPALASAGG [r19_84_JUSTAS]”, the entries for the “folding stability dG unfold” value in data set [1], in data set [2] and in data set [3] were 1.2 ± 0.023 kcal/mol, 0.734 ± 0.045 kcal/mol and 1.03 ± 0.04 kcal/mol, respectively.
On the same counts, the results for “SAGATFKPGQTVTVVEVKVEVSVSLSRNADGSVSLSVSVRVEVKTTTVTLPEPATVTLPPGVKSLEDLLSAG [r5_770_TrROS_Hall]” are 2.37 ± 0.097 kcal/mol, 3.73 ± 0.096 kcal/mol and 3.27 ± 0.089 kcal/mol.
As to “SAGAVEKLRKELEELGYEVELEEVEDEETGKTYFILRIRNPDGEIYEIKVDKKTGEIVEIFKVDNLEELSAG [r5_938_TrROS_Hall]”, the results for the “folding stability dG unfold” value in data set [1], in data set [2] and in data set [3] were 3.83 ± 0.17 kcal/mol, 4.17 ± 0.064 kcal/mol and 4.14 ± 0.19 kcal/mol, respectively.
